The assay has as its target SmBiT fused to the N-terminus of BCR-ABL. As to the kind of experiment: NanoBiT split-luciferase complementation in cells, LgBiT and SmBiT at the N-terminus of BCR-ABL; complex induced by a homo-bifunctional small molecule (homo-PHICS).

In turn, “LgBiT fused to the N-terminus of BCR-ABL (enzyme)” displayed a fold increase in luminescence compared to the DMSO/background of 6 fold.

The values above are taken from patent publication US20240024490A1, “BIFUNCTIONAL MOLECULES FOR SELECTIVE MODIFICATION OF TARGET SUBSTRATES” (The Broad Institute, Inc., priority 2021, published 2024).
